Reference: US20200102349A1 (REGENTS OF THE UNIVERSITY OF MICHIGAN, published 2020)
Values belong to the binder of their own block, whether it stands above or below them. Where no end group is shown, it is not given here. Cy5.5 = Cy5.5 fluorophore

How the values were obtained:
[1] = biological target: T1, Epidermal growth factor receptor (EGFR), human, on cells (human, UniProt P00533 25-1210); test: apparent dissociation constant, flow cytometry on HT29 cells, 0-200 nM peptide, 4° C., R^2=0.95
T1 construct: whole, on cells; The expression level differs between cell lines (HT29 > SW480 > SW620); It is reduced in HT29 cells transfected with siEGFR
Procedure: We measured the apparent dissociation constant of the peptide to HT29 cells as an assessment of binding affinity. QRH*-Cy5.5 was serially diluted in PBS at concentrations of 0, 10, 25, 50, 75, 100, 125, 150 and 200 nM. HT29 cells (˜10⁵) were incubated with QRH*-Cy5.5 at 4° C. for 1 hour, washed with cold PBS, and the mean fluorescence intensities were measured on flow cytometry. The equilibrium dissociation constant kd=1/kₐ was calculated by performing a least squares fit of the data to the non-linear equation I=(I₀+Iₘₐₓkₐ[X])/([…]). I₀ and Iₘₐₓ are the initial and maximum fluorescence intensities, corresponding to no peptide and at saturation, respectively, and [X] represents the concentration of the bound peptide [Thomas et al., Clin Exp Metastasis, 26:105-119 (2009)]. Origin 6.1 data analysis software (OriginLab Corp) was used to calculate kd.

[2] = biological target: T1, Epidermal growth factor receptor …; test: confocal fluorescence microscopy, FITC channel, OE21 cells

Kd [1]: 0.05 µM
Binder: QRHKPREGGGSK(Cy5.5)-NH2 (also called EGFR peptide) [QRH*-Cy5.5 (QRHKPRE peptide with GGGSK linker and Cy5.5 fluorophore)]

fold fluorescence intensity against the GGG* control peptide [2]: > 5 fold
B1: FITC labeled SHRNRPRNTQPS (SHR*) peptide (peptide)
peptide: SHRNRPRNTQPS
modifications: also: FITC label, site not given here
notes: also called SHR*-FITC; FITC-labeled peptide
